Assay results as given in the supplement of paper PMC12042874.
± gives the uncertainty stated by the source.

Experiment: amyloid nucleation score (Sup35N fusion, yeast selection) (log enrichment); library NNK1; higher = more nucleation; inactive = no reads after selection
Method in brief: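 Peptides of 20 random codons, each fused to Sup35N, were expressed in psi-negative yeast. Cells were induced with 100 μM copper sulfate for 24 hours and grown 7 days at 30°C on medium lacking adenine and uracil, and plasmid inserts before and after selection were Illumina-sequenced. Nucleation scores are DiMSum log enrichments of output over input reads, centred on the mode score of non-aggregating sequences, and sequences under 100 input reads were excluded.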

Substance	amyloid nucleation score
WKRSEINDVFVM	inactive
WKYIMHLSRFYVFPCSTERG	0.112 ± 0.87
WLAFWCDLGVSSSFFWAFCG	-0.066 ± 0.37
WLLTNPPLIVFTVRRNSRFS	-1.09 ± 1.9
WLQTTYLGLFMVFTGFEGY	-0.586 ± 0.55
WMEVHWGGNVSLDSSYMELF	-0.044 ± 1.1
WNASMQSTGWFDILIYMCPV	3.19 ± 0.11
WNDSYRINSTGCHDCLYRLF	-0.37 ± 0.3
WNHFERMEKPA	-0.639 ± 1.2
WNYTLGRCRTLGYAVAVLDI	-0.389 ± 1
WPELIFNGVPMSSCVLPGLF	1.12 ± 0.6
WPNNRVQFCSCGSRFSCLGS	0.933 ± 0.85
WPPMQGLSLSSLSSINHPHT	0.76 ± 1.1
WPRNFYFMFRCLGMAAREMC	0.285 ± 0.63
WQHSPTYGYLYIHC	0.633 ± 0.18
WRAYFACYNILESAFLLVQL	inactive
WRLSLYPQPLGLWAEATLDT	-0.209 ± 0.53
WRSNI	-0.151 ± 0.49
WRVSMFGLSESLDRLPCKDL	-0.371 ± 0.45
WSFLANFNWMN	0.157 ± 1.4
WSFQPGRVVFHMFERGDHCC	0.187 ± 0.4
WSGIVFRIEGVAYVVHVNDA	1.17 ± 0.18
WSLDSNKSWSCFKCLCFYCG	6.223 ± 0.054
WSRTDRDDLLVYMKLPRHVY	0.472 ± 0.37
WTCMKSFVMWQSLDFVHFIA	0.85 ± 0.98

Substance	amyloid nucleation score
WTRKS	-0.067 ± 0.35
WTRSFRAFGSSVYWEGRGNH	1.22 ± 0.26
WVHWWFRHVNMACQNGGFIF	-0.565 ± 0.68
WVILVNDGVNVCCFSVRVWA	-0.903 ± 2.4
WVLWYSLLLTDGGDLIESTW	-0.156 ± 0.23
WVNGMYQGRNEYDEKI	-0.455 ± 0.56
WVPGITVKMRYGPESIVDWR	0.565 ± 1.1
WVSFCNFDGKKFGAVRAHYY	-2 ± 0.97
WVSKNRSSFMGCSSFTATWT	0.884 ± 0.69
WVSSDITGRG	1.87 ± 0.65
WVWFCNEF	-0.307 ± 0.57
WVWLHDKASLNLL	0.007 ± 0.72
WWRIIGTEAQNMGG	0.631 ± 0.55
WYENMFN	3.15 ± 0.14
WYEVRYMLTQSYRVHMLFLI	-0.322 ± 1.7
WYKSYVITFITDTLVVDRET	2.41 ± 0.16
WYNGNKSHGRRVPGVQPRAL	-0.046 ± 0.46
WYRGMHLVARRFMTYLARKY	1.32 ± 0.65
WYRQSAFNVLTDSLIILLVC	4.99 ± 0.07
WYVFLYFGCEKAMALSTNMT	inactive
WYVMRLKLVCI	0.156 ± 0.87
WYYITS	0.295 ± 0.67
YAERLIRKWS	0.06 ± 0.28
YAIRHLKIGSGWWSLWMSSM	-0.522 ± 0.34
YAISGAGYMLF	0.027 ± 1.7

Substance	amyloid nucleation score
YAKHCAEGYGFLGWSLWAVR	0.106 ± 0.34
YASTPWYYMCWFIWAYCFSS	inactive
YCGGRKG	0.144 ± 0.34
YCLFNLESG	0.315 ± 0.53
YCMRFVQ	1.52 ± 0.49
YCSTSYRSSHNRSGVWKGTL	1.62 ± 0.55
YCTGSRVVPDGSLVYATCNM	0.895 ± 0.65
YCTVVKFLHATFQFSNPLGM	1.58 ± 0.48
YDFVIFLGHDACEIYCFLRS	0.935 ± 0.56
YDIQVISPPSKM	0.202 ± 0.31
YECGFLLSLVRATKLLNSAC	0.146 ± 0.28
YEFMWRVNTLWRENLFYSGR	0.156 ± 0.59
YEFVRRDHVPFRLGMSNPED	1.76 ± 0.53
YELDWWSLLQE	1.12 ± 0.4
YFAAVIRRFGWTDIERSHQC	0.233 ± 0.79
YFLTFRFCFSVNEVIDPWCA	-0.725 ± 1.1
YFPIGYFVRKEDYGTCENDD	0.386 ± 0.31
YFQTRSAKRVCSNQIHVLRW	3.08 ± 0.12
YFRLHSFFFVESQGICVELR	-0.251 ± 0.69
YFRYWNSLIGIKDSD	1.17 ± 0.39
YFSDIAMWHSEIVR	-0.605 ± 0.73
YFSQPMLLRSSGRAVNSRMR	-1.66 ± 2.4
YFVQYLYTLMLACYYWVISY	-1.61 ± 1.4
YGFCGLMHSNSIHYSNMQSR	0.685 ± 0.48
YGFLVKS	0.1 ± 0.9

Substance	amyloid nucleation score
YGGIVNDVFAGLQNIMGVAL	0.334 ± 0.54
YGKWWWVYRKTSVRRGDGAG	0.49 ± 0.54
YGLATFMGKES	-0.104 ± 0.85
YGLFWN	-1.37 ± 1.5
YGTRVFIGSIRYFRTEEAKI	0.35 ± 0.72
YGYAAYVDMRSGL	-0.257 ± 0.33
YHNCDKDAANLFYCQ	2.01 ± 0.47
YHWILKSCLWMVWSSVYLPI	-0.663 ± 1.7
YIAQSFELKA	0.23 ± 0.53
YIDIVSQKC	0.922 ± 0.62
YIGTKCWNANHVVLLLFCRG	-0.127 ± 0.32
YIIYGWVEIF	-1.14 ± 2.1
YIKMIR	-0.759 ± 0.97
YILPFFGRHYNRHGVFAGAM	-0.647 ± 0.9
YILSFFCVVEARDFFVDFEM	5 ± 0.062
YILWNHNGLNGWGFAGITLF	-0.994 ± 0.51
YIPFGLIYHGKLG	-0.969 ± 2.1
YIRGNFYSYQWGNCFMGNFC	7.792 ± 0.05
YIRNTLTPEMVNWRDLRVPR	-0.152 ± 0.73
YISEM	0.544 ± 0.35
YISLRFISYYYYVRGKFYMK	0.672 ± 0.56
YIWQGTRFQRGNRIYIGSQG	0.271 ± 0.54
YKCMSKIFQFLVWAGEEWGL	-0.398 ± 1.1
YKGRTPSSRLASLVCRGG	-0.198 ± 0.64
YKHKTFIPRFTYNETVVYYV	4.85 ± 0.087

Substance	amyloid nucleation score
YKRCAPDRHYG	1.06 ± 0.58
YKSISSDSAKWFVMGLNGLV	-1.6 ± 1.1
YKSLMFWLVLVSVFMIRRNI	2.62 ± 0.26
YKTYMFYCTSFQSGPCSRLI	-0.634 ± 0.35
YLCKVRACTRKSQSLLCGAS	0.678 ± 0.65
YLDDIH	-0.105 ± 0.44
YLDVLGAFC	-0.214 ± 0.47
YLDWTVSALNWAMRMGSTVR	0.381 ± 0.31
YLFFNLYCNYVLTAMLRACS	inactive
YLGQWFNYTCYQWVMV	1.37 ± 0.21
YLGRVSFIGHFVVTVSGSSQ	1.1 ± 0.21
YLIEFCPL	-0.225 ± 0.34
YLIRHIENGCSTQCRSTSWV	inactive
YLLCFCR	0.354 ± 0.27
YLLESSTIGIV	0.474 ± 0.69
YLPYVNLAG	-1.07 ± 2.4
YLSLTTEVWSNGHVWCGIGR	-0.043 ± 1.4
YLSRGNY	-0.245 ± 0.79
YLTWQKTWRVRVSVLCTGTD	0.638 ± 0.58
YLTYAPQVWLSAGFNSNEGS	5.71 ± 0.078
YLVSYMWVSLDDLSLYRANG	0.585 ± 0.52
YLVWCIESITLGFMGELGAR	0.199 ± 0.57
YMAFYPCWVHHKMIEKLCRC	-0.076 ± 0.71
YMASYGNLVGMFDAIQVLIV	1.08 ± 0.31
YMCGLSECAS	5 ± 0.062

Substance	amyloid nucleation score
YMFVMEKARTSIYLSMRNYC	-0.419 ± 0.39
YMGGEWKD	6.801 ± 0.06
YMNWFITGHDVGRYLIQFFV	-1.74 ± 2.4
YMPPNGKCSKVCLLRGGDYM	0.719 ± 0.37
YNCYREGAWSITIRWIANRV	0.124 ± 0.34
YNGLGIEETNWAARGS	-1.12 ± 1.1
YNIALCINSQVRESRRPVGV	5.24 ± 0.072
YNLDDILPLHIEGRFNRDIA	inactive
YNLDSLLIWWVIDC	-0.22 ± 1.1
YNLYS	-0.626 ± 1.1
YNPGG	-0.248 ± 0.26
YNRDRECWRIS	1.17 ± 0.53
YNSETSPVCYELTCESFCIV	-1.23 ± 2.4
YNTDWPLHLTADVGVFY	-0.088 ± 1.1
YNWYPEWLCYIFRTKQVVGT	0.382 ± 0.45
YNYVG	-1.29 ± 2.7
YPIYIVWVFIVITICVANDS	-0.072 ± 0.31
YPNYFSVRFSNWLASTKFQI	inactive
YPSVADRHAILHR	0.219 ± 0.74
YPTPLQVFVRSRFDRRI	-0.132 ± 0.26
YPYNWSPYEAASIVAVQNYQ	-1.44 ± 1.5
YQFGLEKSMLGRGY	0.36 ± 0.41
YQLWPQASMKMCD	0.258 ± 0.4
YRAKSSEGL	-0.631 ± 0.71
YRHSDANKHLGGAIQF	-0.519 ± 0.53

Substance	amyloid nucleation score
YRLKRINCGHVGHYMEDIRR	-0.099 ± 0.29
YRVFASNCEFYSRCKYLYLL	0.029 ± 1.6
YRVLELFYFV	inactive
YRWSVCCLLVMFWLYDGALL	-0.156 ± 0.8
YRWVFKCRCRSPGGESKSSR	5.9 ± 0.097
YSCWFKHRTALPIGSEGMTR	0.708 ± 0.53
YSHYNGTVAYRWEPQ	0.901 ± 0.47
YSIFILRSAWMMRRIEMSTA	-0.252 ± 0.45
YSLEFSSFMLFLTCLVSYNY	-0.457 ± 0.4
YSLFAGIG	0.735 ± 0.85
YSLWFLRYSRNGSMRDLLRF	-0.447 ± 0.39
YSMIPKITSKP	0.028 ± 0.29
YSNRWNYWVYVFGQVF	-0.437 ± 0.42
YSNWGHVSRWFLRFIVVFFI	0.459 ± 0.64
YSPDLSRASFCFLWYISSS	inactive
YSRWER	-0.565 ± 0.39
YSSERTLLALVGT	-0.21 ± 0.51
YSVDKIAYFGINKCRTVLWE	1.09 ± 0.52
YSYVVCYNFYKRV	3.86 ± 0.14
YTAMFCNSVLHADGLPQLMG	-0.033 ± 0.97
YTASMTIFLDLLP	2.07 ± 0.15
YTCCWTVG	4.18 ± 0.08
YTGIPRSS	0.203 ± 0.28
